Data: patent publication US20180194839A1 (Novartis, published 2018)
Numbering of substitutions follows the chain as printed. In names and notes the source's numbering stands.

T1: human IL-17A (construct not stated) (human, UniProt Q16552 24-155, limits assumed)
T1 sequence: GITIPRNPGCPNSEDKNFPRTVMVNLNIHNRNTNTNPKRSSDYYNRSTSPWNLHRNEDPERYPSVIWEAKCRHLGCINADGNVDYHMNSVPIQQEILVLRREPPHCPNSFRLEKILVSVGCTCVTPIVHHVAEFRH

T2: recombinant human IL-17A (SEQ ID NO: 76) (human, UniProt Q16552 24-155, limits assumed)
T2 sequence: T1 sequence

T3: recombinant mouse IL-17A (SEQ ID NO: 83) (mouse, UniProt Q62386 26-158)
T3 sequence: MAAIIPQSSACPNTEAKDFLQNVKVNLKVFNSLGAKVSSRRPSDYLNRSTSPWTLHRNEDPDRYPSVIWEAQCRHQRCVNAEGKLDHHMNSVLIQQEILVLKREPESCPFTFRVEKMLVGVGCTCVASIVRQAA

T4: recombinant human IL-17A (SEQ ID NO: 78) (human, UniProt Q16552 24-155, limits assumed)
T4 construct: homodimer; also called huIL-17A; hulL-17A
T4 sequence: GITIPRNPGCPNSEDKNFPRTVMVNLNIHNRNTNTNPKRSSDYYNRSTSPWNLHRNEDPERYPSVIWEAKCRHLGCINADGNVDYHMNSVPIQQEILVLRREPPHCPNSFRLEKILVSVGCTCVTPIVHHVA

B1: XAB2 (antibody, human IgG1, kappa, V domains shown)
VH: EVQLVESGGDLVQPGGSLRLSCAASGFTFSSYWMSWVRQAPGKGLEWVANIKQDGSEKYYVDSVKGRFTISRDNAKNSLYLQMNSLRAEDTAVYYCARDRGSLYYWGQGTLVTVSS
VL: AIQLTQSPSSLSASVGDRVTITCRPSQVIISALAWYQQKPGKAPKLLIYDASSLEQGVPSRFSGSVSGTDFTLTISSLQPEDFATYYCQQFDSYPLTFGGGTKVEIKR
B2: XAB5 (antibody, human IgG1, kappa, V domains shown)
VH: B1 VH
VL: B1 VL with V28G, I30N, S31W, A32E, Q56N, V66G, D92N
B3: MB454 (Fab, V domains shown)
VH: B1 VH
VL: AIQLTQSPSSLSASVGDRVTITCRPSQGILWALAWYQQKPGKAPKLLIYDASSLENGVPSRFSGSGSGTDFTLTISSLQPEDFATYYCQQFNSYPLTFGGGTKVEIK
notes: 32 stays A); heavy chain C-terminal Flag tag
B4: MB468 (Fab, V domains shown)
VH: B1 VH
VL: B3 VL with L30Y, A32E
notes: heavy chain C-terminal Flag tag; with N56Q formatted to IgG as XAB3
B5: MB440 (Fab, V domains shown)
VH: B1 VH
VL: B3 VL with A32Q
notes: heavy chain C-terminal Flag tag
B6: MB433 (Fab, V domains shown)
VH: B1 VH
VL: B3 VL with L30Y, A32G
notes: as for B5
B7: MB453 (Fab, V domains shown)
VH: B1 VH
VL: B3 VL with L30V, W31F, A32W
notes: as for B5
B8: MB486 (Fab, V domains shown)
VH: B1 VH
VL: B3 VL with L30W, A32M
notes: as for B5
B9: MB447 (Fab, V domains shown)
VH: B1 VH
VL: B3 VL with L30F, A32W
notes: as for B5
B10: MB461 (Fab, V domains shown)
VH: B1 VH
VL: B3 VL with L30Y, A32T
notes: as for B5
B11: MB450 (Fab, V domains shown)
VH: B1 VH
VL: B3 VL with L30M, A32W
notes: as for B5
B12: MB491 (Fab, V domains shown)
VH: B1 VH
VL: B3 VL with L30F, W31F, A32W
notes: as for B5
B13: MB448 (Fab, V domains shown)
VH: B1 VH
VL: B3 VL with L30V, A32M
notes: as for B5
B14: MB463 (Fab, V domains shown)
VH: B1 VH
VL: B3 VL with L30Y, W31F, A32E
notes: as for B5
B15: MB435 (Fab, V domains shown)
VH: B1 VH
VL: B3 VL with L30N, A32E
notes: as for B5
B16: MB464 (Fab, V domains shown)
VH: B1 VH
VL: B3 VL with L30I, W31Y, A32Q
notes: 30 stays I); heavy chain C-terminal Flag tag
B17: MB456 (Fab, V domains shown)
VH: B1 VH
VL: B3 VL with A32H
notes: as for B5
B18: MB432 (Fab, V domains shown)
VH: B1 VH
VL: B3 VL with W31F
notes: as for B3
B19: MB483 (Fab, V domains shown)
VH: B1 VH
VL: B3 VL with L30F, A32T
notes: as for B5
B20: MB434 (Fab, V domains shown)
VH: B1 VH
VL: B3 VL with L30W, A32Y
notes: as for B5
B21: MB438 (Fab, V domains shown)
VH: B1 VH
VL: B3 VL with L30P, W31Y
notes: as for B3
B22: MB444 (Fab, V domains shown)
VH: B1 VH
VL: B3 VL with A32E
notes: as for B5
B23: MB458 (Fab, V domains shown)
VH: B1 VH
VL: B3 VL with L30W, W31Y, A32Q
notes: as for B5
B24: MB457 (Fab, V domains shown)
VH: B1 VH
VL: B3 VL with L30I, A32S
notes: as for B16

Biological target: T1, human IL-17A (construct not stated)
Assay: cell-based or functional assay

| Binder | EC50, in vitro neutralization activity, T = 0 weeks [µg/mL] | EC50, in vitro neutralization activity, T = 4 weeks at pH 8, 40°C (forced deamidation) [ng/ml] |
| --- | --- | --- |
| B1 | 0.045 | 47 |
| B2 | 0.045 | 61 |

Biological target: T2, recombinant human IL-17A (SEQ ID NO: 76)
Assay: cell-based or functional assay

| Binder | IC50, huIL-6 secretion by BJ cells; stimulus rhuIL-17A (0.5 nM) [nM] |
| --- | --- |
| B1 | 0.64 |
| B2 | 0.54 |

Biological target: T2, recombinant human IL-17A (SEQ ID NO: 76)
Assay: cell-based or functional assay
Remark: another data set of the same source

| Binder | IC50, huGROα secretion by BJ cells; stimulus rhuIL-17A (0.5 nM) [nM] |
| --- | --- |
| B1 | 0.4 |
| B2 | 0.46 |

Biological target: T3, recombinant mouse IL-17A (SEQ ID NO: 83)
Assay: cell-based or functional assay

| Binder | IC50, KC secretion by CMT-93 cells; stimulus mIL-17A (0.15 nM) [nM] |
| --- | --- |
| B1 | 20.9 |
| B2 | 7.8 |

Biological target: T1, human IL-17A (construct not stated)
Assay: ELISA on coated huIL-17A, crude Fab extract

| Binder | Classic ELISA (normalized to XAB1 Fab) |
| --- | --- |
| B3 | 2.9 ratio to XAB1 Fab |
| B4 | 2.8 ratio to XAB1 Fab |
| B5 | 2.8 ratio to XAB1 Fab |
| B6 | 2.3 ratio to XAB1 Fab |
| B7 | 2.7 ratio to XAB1 Fab |
| B8 | 1.9 ratio to XAB1 Fab |
| B9 | 3 ratio to XAB1 Fab |
| B10 | 2.9 ratio to XAB1 Fab |
| B11 | 2.9 ratio to XAB1 Fab |
| B12 | 2.1 ratio to XAB1 Fab |
| B13 | 2.9 ratio to XAB1 Fab |
| B14 | 2.7 ratio to XAB1 Fab |
| B15 | 2.7 ratio to XAB1 Fab |
| B16 | 2.7 ratio to XAB1 Fab |
| B17 | 2.4 ratio to XAB1 Fab |
| B18 | 2.3 ratio to XAB1 Fab |
| B19 | 3.1 ratio to XAB1 Fab |
| B20 | 2.4 ratio to XAB1 Fab |
| B21 | 2.7 ratio to XAB1 Fab |
| B22 | 3.2 ratio to XAB1 Fab |
| B23 | 2.7 ratio to XAB1 Fab |
| B24 | 2.7 ratio to XAB1 Fab |

Biological target: T4, recombinant human IL-17A (SEQ ID NO: 78)
Assay: SPR (Biacore), captured antibody, antigen as analyte

| Binder | Kd [nM] | koff [s⁻¹] | kon [M⁻¹ s⁻¹] |
| --- | --- | --- | --- |
| B1 | 0.0176 | 7.12e-05 | 4.09e+06 |

Biological target: T1, human IL-17A (construct not stated)
Assay: ELISA on coated huIL-17A, crude Fab extract, wash of at least 3 h

| Binder | Off-rate ELISA (normalized to XAB1 Fab) |
| --- | --- |
| B3 | 34.2 ratio to XAB1 Fab |
| B4 | 43.9 ratio to XAB1 Fab |
| B5 | 52.5 ratio to XAB1 Fab |
| B6 | 39.7 ratio to XAB1 Fab |
| B7 | 43.3 ratio to XAB1 Fab |
| B8 | 58.5 ratio to XAB1 Fab |
| B9 | 45.5 ratio to XAB1 Fab |
| B10 | 49.8 ratio to XAB1 Fab |
| B11 | 41.5 ratio to XAB1 Fab |
| B12 | 43 ratio to XAB1 Fab |
| B13 | 40.4 ratio to XAB1 Fab |
| B14 | 34.2 ratio to XAB1 Fab |
| B15 | 44.7 ratio to XAB1 Fab |
| B16 | 34.9 ratio to XAB1 Fab |
| B17 | 45.1 ratio to XAB1 Fab |
| B18 | 44.2 ratio to XAB1 Fab |
| B19 | 47.1 ratio to XAB1 Fab |
| B20 | 44.4 ratio to XAB1 Fab |
| B21 | 41.5 ratio to XAB1 Fab |
| B22 | 48.9 ratio to XAB1 Fab |
| B23 | 33 ratio to XAB1 Fab |
| B24 | 34.7 ratio to XAB1 Fab |

Biological target: T1, human IL-17A (construct not stated)
Assay: ELISA on coated huIL-17A, crude Fab extract, overnight with 200 nM XAB1 Fab as competitor

| Binder | Competition ELISA (normalized to XAB1 Fab) |
| --- | --- |
| B3 | 36.6 ratio to XAB1 Fab |
| B4 | 60 ratio to XAB1 Fab |
| B5 | 54 ratio to XAB1 Fab |
| B6 | 29.3 ratio to XAB1 Fab |
| B7 | 46.4 ratio to XAB1 Fab |
| B8 | 64.9 ratio to XAB1 Fab |
| B9 | 57 ratio to XAB1 Fab |
| B10 | 62.8 ratio to XAB1 Fab |
| B11 | 53.3 ratio to XAB1 Fab |
| B12 | 44.2 ratio to XAB1 Fab |
| B13 | 51.5 ratio to XAB1 Fab |
| B14 | 31.6 ratio to XAB1 Fab |
| B15 | 44.6 ratio to XAB1 Fab |
| B16 | 36.9 ratio to XAB1 Fab |
| B17 | 46.7 ratio to XAB1 Fab |
| B18 | 37.3 ratio to XAB1 Fab |
| B19 | 45.2 ratio to XAB1 Fab |
| B20 | 39.5 ratio to XAB1 Fab |
| B21 | 41.1 ratio to XAB1 Fab |
| B22 | 52.4 ratio to XAB1 Fab |
| B23 | 42.1 ratio to XAB1 Fab |
| B24 | 41 ratio to XAB1 Fab |

Biological target: T1, human IL-17A (construct not stated)
Assay: ELISA titration of purified Fab on plate-coated huIL-17A, normalized signal; x axis printed as log10 of Fab concentration (M)

| Binder | EC50 (read off the curve) [nM] |
| --- | --- |
| B4 | ~2 |
| B5 | ~0.6 |
| B14 | ~3 |
| B15 | ~2 |
| B16 | ~2 |
| B22 | ~2 |
